Laboratory results reported in publication PMC3166298, “Phosphorylation Alters the Interaction of the Arabidopsis Phosphotransfer Protein AHP1 with Its Sensor Kinase ETR1” (PLoS ONE, 2011).

How the values were obtained:
Conditions in all cases: both partners purified
[1] = target: T1, ethylene receptor ethylene response 1 (ETR1), wild type (Arabidopsis, UniProt P49333 1-738); test: fluorescence polarisation; wild type ETR1 pre-incubated with 0.1 mM copper chloride, added to wild type AHP1-GFP; with 100 uM potassium cyanide; 50 mM Tris-HCl pH 7.5, 100 mM KCl, 0.1% beta-D-dodecylmaltoside, 0.002% PMSF
T1 construct: Solubilised in beta-D-dodecylmaltoside; also called sensor kinase ETR1; AtETR1
T1 sequence (looked up): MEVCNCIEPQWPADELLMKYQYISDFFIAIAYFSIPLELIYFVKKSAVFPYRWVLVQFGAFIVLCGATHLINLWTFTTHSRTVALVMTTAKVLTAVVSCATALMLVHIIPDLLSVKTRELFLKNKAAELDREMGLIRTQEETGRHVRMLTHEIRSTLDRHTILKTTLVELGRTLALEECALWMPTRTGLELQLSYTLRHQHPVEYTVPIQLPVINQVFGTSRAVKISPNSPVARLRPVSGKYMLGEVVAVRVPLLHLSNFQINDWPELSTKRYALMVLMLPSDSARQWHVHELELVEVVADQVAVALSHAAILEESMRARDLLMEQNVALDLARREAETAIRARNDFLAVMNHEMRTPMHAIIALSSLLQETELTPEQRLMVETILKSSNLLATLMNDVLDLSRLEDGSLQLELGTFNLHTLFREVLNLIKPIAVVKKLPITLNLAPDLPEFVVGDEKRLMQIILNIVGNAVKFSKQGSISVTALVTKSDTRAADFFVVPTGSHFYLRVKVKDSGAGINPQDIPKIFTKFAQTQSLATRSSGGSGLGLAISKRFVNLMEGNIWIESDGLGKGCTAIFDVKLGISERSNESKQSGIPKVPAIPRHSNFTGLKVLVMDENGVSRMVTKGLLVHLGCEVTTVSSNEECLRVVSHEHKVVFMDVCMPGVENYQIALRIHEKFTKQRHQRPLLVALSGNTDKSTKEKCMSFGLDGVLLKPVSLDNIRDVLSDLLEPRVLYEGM

[2] = target: T1, ethylene receptor ethylene response 1 …; test: fluorescence polarisation; wild type ETR1 pre-incubated with 0.1 mM copper chloride, added to wild type AHP1-GFP; with 100 uM ethephon; 50 mM Tris-HCl pH 7.5, 100 mM KCl, 0.1% beta-D-dodecylmaltoside, 0.002% PMSF
[3] = target: T1, ethylene receptor ethylene response 1 …; test: fluorescence polarisation; control: wild type ETR1 and wild type AHP1-GFP with cyanide or ethephon but without the copper cofactor; same buffer

Kd [1]: 9 µM | Kd [2]: 7.7 µM | Kd [3]: 1.4 µM
B1: AHP1-GFP(S65T), wild type Arabidopsis histidine-containing phosphotransfer protein 1 fused to green fluorescent protein (natural protein, UniProt Q9ZNV9 1-154, looked up)
chain: MDLVQKQKSLQDYTKSLFLEGILDSQFLQLQQLQDESNPDFVSQVVTLFFQDSDRILNDLSLSLDQQVVDFKKVDPHVHQLKGSSSSIGAQRVKNACVVFRSFCEQQNVEACHRCLQQVKQEYYLVKNRLETLFKLEQQIVASGGMIPAVELGF
notes: AHP1, Arabidopsis histidine-containing phosphotransfer protein 1; Theoretical molecular weight of AHP1-GFP printed as 45.6 kDa; also called wild type AHP1-GFP
